In PMC6381110, “Allosteric enhancement of ORP1-mediated cholesterol transport by PI(4,5)P2/PI(3,4)P2” (Nature Communications, 2019):
Values joined by “and” are separate entries in the source; they are usually repeats but may differ in a detail not shown here. Equal entries are not always repeated.

Key:
[1] = biological target: the molecule itself; assay: crystal structure; ORP1-ORD (534-950) with cholesterol, hanging drop 18 °C, 0.1 M Na cacodylate pH 6.2, 1.2 M Na citrate; oligomer by crystal symmetry
[2] = biological target: the molecule itself; assay: SEC; Superdex-200 10/300, 10 mM Tris-HCl pH 8.0, 150 mM NaCl, 2 mM DTT; ORP1-ORD 5 uM alone or with cholesterol (free or in liposomes, 4:1); cholesterol shifts the protein towards monomer
[3] = biological target: the molecule itself; assay: crystal structure; ORP1-ORD (524-950) with cholesterol, hanging drop 18 °C, 0.1 M NaAc pH 4.6, 2.0 M Na formate; oligomer by crystal symmetry

B1: ORP1-ORD (residues 534-950) (domain or fragment, human, UniProt Q9BXW6 534-950, looked up)
chain: RTSLPSPMFSRNDFSIWSILRKCIGMELSKITMPVIFNEPLSFLQRLTEYMEHTYLIHKASSLSDPVERMQCVAAFAVSAVASQWERTGKPFNPLLGETYELVRDDLGFRLISEQVSHHPPISAFHAEGLNNDFIFHGSIYPKLKFWGKSVEAEPKGTITLELLEHNEAYTWTNPTCCVHNIIVGKLWIEQYGNVEIINHKTGDKCVLNFKPCGLFGKELHKVEGYIQDKSKKKLCALYGKWTECLYSVDPATFDAYKKNDKKNTEEKKNSKQMSTSEELDEMPVPDSESVFIIPGSVLLWRIAPRPPNSAQMYNFTSFAMVLNEVDKDMESVIPKTDCRLRPDIRAMENGEIDQASEEKKRLEEKQRAARKNRSKSEEDWKTRWFHQGPNPYNGAQDWIYSGSYWDRNYFNLPDIY
notes: OSBP-related domain (ORD) of human ORP1, residues 534-950 on ORP1L (1-950) numbering; Crystallised with cholesterol from Na cacodylate; also called ORP1-ORD (534-950); ORP1S lacking the N-terminal 20 amino acids; source: E. coli Rosetta(DE3), purified (Ni-NTA, ion exchange, gel filtration)
B1 was tested, and the “stoichiometry N” value [1] was 2.

B2: ORP1S (ORP1-ORD, residues 514-950) (natural protein, human, UniProt Q9BXW6 514-950, looked up)
chain: MSEEKDCGGGDALSNGIKKHRTSLPSPMFSRNDFSIWSILRKCIGMELSKITMPVIFNEPLSFLQRLTEYMEHTYLIHKASSLSDPVERMQCVAAFAVSAVASQWERTGKPFNPLLGETYELVRDDLGFRLISEQVSHHPPISAFHAEGLNNDFIFHGSIYPKLKFWGKSVEAEPKGTITLELLEHNEAYTWTNPTCCVHNIIVGKLWIEQYGNVEIINHKTGDKCVLNFKPCGLFGKELHKVEGYIQDKSKKKLCALYGKWTECLYSVDPATFDAYKKNDKKNTEEKKNSKQMSTSEELDEMPVPDSESVFIIPGSVLLWRIAPRPPNSAQMYNFTSFAMVLNEVDKDMESVIPKTDCRLRPDIRAMENGEIDQASEEKKRLEEKQRAARKNRSKSEEDWKTRWFHQGPNPYNGAQDWIYSGSYWDRNYFNLPDIY
notes: ORP1S, the short isoform encoded by human OSBPL1A, residues 514-950 on the numbering of the long isoform ORP1L (1-950); holds only the ORD; pET21b construct; In gel filtration it is a mixture of monomers, dimers and trimers; also called short isoform of OSBPL1A; source: E. coli Rosetta(DE3), purified (Ni-NTA, ion exchange, gel filtration)
For B2, the “stoichiometry N” value [2] was 2 and 3.

B3: ORP1-ORD (residues 524-950) (domain or fragment, human, UniProt Q9BXW6 524-950, looked up)
chain: DALSNGIKKHRTSLPSPMFSRNDFSIWSILRKCIGMELSKITMPVIFNEPLSFLQRLTEYMEHTYLIHKASSLSDPVERMQCVAAFAVSAVASQWERTGKPFNPLLGETYELVRDDLGFRLISEQVSHHPPISAFHAEGLNNDFIFHGSIYPKLKFWGKSVEAEPKGTITLELLEHNEAYTWTNPTCCVHNIIVGKLWIEQYGNVEIINHKTGDKCVLNFKPCGLFGKELHKVEGYIQDKSKKKLCALYGKWTECLYSVDPATFDAYKKNDKKNTEEKKNSKQMSTSEELDEMPVPDSESVFIIPGSVLLWRIAPRPPNSAQMYNFTSFAMVLNEVDKDMESVIPKTDCRLRPDIRAMENGEIDQASEEKKRLEEKQRAARKNRSKSEEDWKTRWFHQGPNPYNGAQDWIYSGSYWDRNYFNLPDIY
notes: OSBP-related domain (ORD) of human ORP1, residues 524-950 on ORP1L (1-950) numbering; Crystallised with cholesterol and with PI(4,5)P2; also called ORP1-ORD (524-950); source: E. coli Rosetta(DE3), purified (Ni-NTA, ion exchange, gel filtration)
In the case of B3, the “stoichiometry N” value [3] is reported as 3.
